The values below come from the nanobody polyreactivity screen of Harvey et al. (2022).

The series can be described thus: yeast display, Sf9 membrane polyspecificity reagent, FACS + sequencing; frameworks hold sequencing errors. The essentials: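 Nanobodies came from a synthetic yeast display library in Saccharomyces cerevisiae BJ5465, induced with galactose for 36–48 hours and stained for 1 hour at 4 °C with 10% biotinylated, detergent-solubilized Sf9 membrane reagent. Cells were enriched on streptavidin microbeads and then FACS-sorted, with low and high (top ~1%) gates set on anti-HA fluorescence for expression and streptavidin fluorescence for reagent binding. Each polyreactivity label reflects the gate a clone came from. Genes were amplified by colony PCR, sequenced by MiSeq 2 × 250 and filtered by CDR length.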
In the case of “QVQLVESGGGLVQAGGSLRLSCAASGNIFSYNAMGWYRQAPGKERELVAGISTAGTTSYADSVKGRFTISRDNAKNTVYLQLNSLKPEDTAVYYCAKRRYYWTNLHYFLGYDYWGQGTQVTVSS”, the “polyreactivity (PSR sort gate)” value is on record as “low polyreactivity”.
Turning to “QVQLVESGGGLVQAGGSLRLSCAASGNIFTTYAMGWYRQAPGKERELVAAISRTGGRTSYADSVKGRFTISRDNAKNTVYLQMNSLKPEDTAVYYCAAVPTVRPSAPRARILSDYWGQGTQVTVSS”, the “polyreactivity (PSR sort gate)” value is given as “high polyreactivity”.
As for “QVQLVESGGGLVQAGGSLRLSCAASGNIFVAYPMGWYRKATGKERELVAVISNGGRTYYADSVKGRFTISRDNAKNTVYLQMNSLKPEDTAVYYCATVAHASYGWHNYWGQGTQVTVSS”, the entry is “high polyreactivity”; as for “QVQLVESGGGLVQAGGSLRLSCAASGNIFVPNAMGWYRQAPGKERGLVAAIRRGGSTNYADSVKGRFTISRDNAKNNVYLQMNSLKPEDTGVYYCARSRVSFTDLEGYYWGQGTQVTVSS”, “low polyreactivity”; as for “QVQLVESGGGLVQAGGSLRLSCAASGNIFVRYAMGWYRQAPGKERELVAAISSSGGRTYYADSVKGRFTISRDNAKNTVYLQMNSLKPEDTAVYYCADAQGNAHRDYWGQGTQVTVSS”, “high polyreactivity”.
As for “QVQLVESGGGLVQAGGSLRLSCAASGNIFVYYAMGWYRQAPGKERELVASITTSGGSTYYADSVKGRFTISRDNAKNTVYLQMNSLKPEDTAVYYCAALYYYWMDYWGQGTQVTVSS”, the entry is “low polyreactivity”; as for “QVQLVESGGGLVQAGGSLRLSCAASGNIFWAYAMGWYRQAPGKERELVAAISGRSGSTYYADSVKGRFTISRDNAKNTVYLQMNSLKPEDTAVYYCNARPRYTSGGYDYWGQGTQVTVSS”, “low polyreactivity”; as for “QVQLVESGGGLVQAGGSLRLSCAASGNIFYGYAMGWYRQAPGKERELVARINWSGSRTYYADSVKGRFTISRDNAKNSVYLQMNSLKPEDTAVYYCNTSTSRVPGNGDYWGQGTQVTVSS”, “high polyreactivity”.
“QVQLVESGGGLVQAGGSLRLSCAASGNIFYKYDMGWYRQAPGKERELVATISSDANTKYADSLKGRFTISRDNAKNTVYLQMNSLKPEDTPVYYCNVKDPVVRGALRDPTEYDSWGQGTQVTVSS”: the “polyreactivity (PSR sort gate)” value is “low polyreactivity”.
For “QVQLVESGGGLVQAGGSLRLSCAASGNIFYLNTMGWYRQAPGKERELVASITRSTGSTYYADSVKGRFTISRDNAKNTVYLQMNSLKPEDTAVYYCAADWSLNKTPRLKGYTFRDDYWGQGTQVTVTS”, the “polyreactivity (PSR sort gate)” value was “low polyreactivity”.
On to “QVQLVESGGGLVQAGGSLRLSCAASGNIFYNVMGWYRQAPGKVRELVAVISSGDSTYYADSVKGRFTISRDNAKNTVYLQMNSLIPEDTAVYYCNAQWITSAYLLYSYDYWWGYDYWGQGTQVTVSS”, for which the “polyreactivity (PSR sort gate)” value was “high polyreactivity”.
Consider “QVQLVESGGGLVQAGGSLRLSCAASGNIFYRNAMGWYRQAPGKERELVAGITTSGDSTYYADSVKGRFTISRDNAKNTVYLQMNSLKPEDTAVYYCAASSHRYKYSSSYYYWGQGTQVTVSS”, for which the “polyreactivity (PSR sort gate)” value is listed as “high polyreactivity”.
In the case of “QVQLVESGGGLVQAGGSLRLSCAASGNIFYRYAMGWYRQAPGKERELVAAISGNSGNTYYADSVKGRFTISRDNAKNTVYLQMNSLKPEDTAVYYCAVRRKSFRQTSYNYWGQGTQVTVSS” it was “high polyreactivity”; in that of “QVQLVESGGGLVQAGGSLRLSCAASGNIFYTYAMGWYRQAPGKERELVAAITWSGGSTYYADSVKGRFTISRDNAKNTVYLQMNSLKPEDTAVYYCAAESLGYYYSGGYYSIYDHWGQGTQVTVSS”, “high polyreactivity”.
As for “QVQLVESGGGLVQAGGSLRLSCAASGNIFYYNAMGGNRQAPGKERELVAAITTGGSTNYADSVKGRFTISRDNAKNTVYLQMNSLTPEDTAVYDCAADFIRYINRLLYDYWGQGTQVTVSS”, the entry is “low polyreactivity”.
For “QVQLVESGGGLVQAGGSLRLSCAASGNIFYYYAMGWYRQAPGKERELVAAISNGITYYADSVKGRFTISRDNAKNTVYLQMNSLKPEDTAVYYCAVDSDGNVRAVSGESLYDYWGQGTQVTVSS”, the “polyreactivity (PSR sort gate)” value is given as “low polyreactivity”.
As for “QVQLVESGGGLVQAGGSLRLSCAASGNIFYYYAMGWYRQAPGKERELVAAISWRGGITYYANSVKGRFTISRDNAKNTVYLQMNSLKPEDNAVYYCNAVQPGYPNGFAVRYNYWGQGTQVTVSS”, the entry is “low polyreactivity”; as for “QVQLVESGGGLVQAGGSLRLSCAASGNIFYYYAMGWYRQAPGKERELVATISKGGGSTNYADSVKGRFTISRDNAKNTVYLQMNSLKPEDTAVYYCNASYVSRRYHFDYWGQGTQVTVSS”, “high polyreactivity”; as for “QVQLVESGGGLVQAGGSLRLSCAASGNILFYNAMGWYRQAPGKERELVAAISRSAGSTYYADSVKGRFTISRDNAKNTVYLQMNSLKPEDTAVYYCAAQYFRRSVYWGQGTQVTVSS”, “high polyreactivity”.
On to “QVQLVESGGGLVQAGGSLRLSCAASGNILIGNVMGWYRQAPGKERELVAAITSGGDTYYADSVKGRFTISRDNAKNTVNLQMNSLKPEDTAVYYCAADRPGQPKYEYWGQGTQVTVSS”, for which the “polyreactivity (PSR sort gate)” value is “low polyreactivity”.
In the case of “QVQLVESGGGLVQAGGSLRLSCAASGNISYTYVMGWSRQAPGKHRELVAAITWSTGSTYYADSVKGRFTISRDNAKNTVYLQMNSLKPEDTAVYYCAVDGGEFSSYGYWGQGTQVTVSS” it was “low polyreactivity”; in that of “QVQLVESGGGLVQAGGSLRLSCAASGNIYSWYAMGWYRQAPGKERELVAVISRSGGSTYYADSVKGRFTISRDNAKNTVYLQMNSLKPEDTAVYYCAARAYRTPYSIQFDYWGQGTQVTVSS”, “high polyreactivity”.
As for “QVQLVESGGGLVQAGGSLRLSCAASGNTFAQNTMGWYRQAPGKEREFVAGITFSGTGTYYADSVKGRFTISRDNAKNTVYLQMNSLKPEDTAVYYCAAESVYTWYYQDDDDYWGQGTQVTVSS”, the entry is “low polyreactivity”; as for “QVQLVESGGGLVQAGGSLRLSCAASGNTFCQYAMGWYRQAPGKERELVAAITRSTGSTYYADSVNGRFTISRDNAKNTVYLQMISLKPEDTAVYYCAADFYRHYFRVDSWGQGTQVTVSS”, “low polyreactivity”; as for “QVQLVESGGGLVQAGGSLRLSCAASGNTFDGNAMGWYRQAPGQERELVAAINYSGASTSYADSVKGRFTISRDNAKNTVYLQMNSLKREDTAVYYCAADYPPLYRKYDYWGHGTQVTVSS”, “low polyreactivity”.
As for “QVQLVESGGGLVQAGGSLRLSCAASGNTFEYYAMGWYRQAPGKERELVAAITSGGSTNYADSVKGRFTISRDNAKNTVYYQMNSLKPEDTAVYYCAADQWGYEYDYWGQGTQVTVSS”, the entry is “low polyreactivity”; as for “QVQLVESGGGLVQAGGSLRLSCAASGNTFEYYVMGWYRQAPGKERELVAAITWSTGSTYYADSVKGRFTISRDNAKNTVYLQMNSLKPEDTAVYYCAALYYFIFGRPTRFDYWGQGTQVTVSS”, “low polyreactivity”; as for “QVQLVESGGGLVQAGGSLRLSCAASGNTFGLYAMGWYRQAPGKEREFVADITTDGGTTYYADSVKGRFTISRDNAKNTVYLQMNSLKPEDTAVYYCAKLGTFGQHQYDYWGQGTQVTVSS”, “low polyreactivity”.
On to “QVQLVESGGGLVQAGGSLRLSCAASGNTFGRYAMGWYRQAPGKERELVASIRGSSVRTFYADSVKGRFTISRDNAKNTVYLQMNSLKPEDTAVYYCAKRGYAYPSSYDSWGQGTQVTVSS”, for which the “polyreactivity (PSR sort gate)” value is “high polyreactivity”.
As for “QVQLVESGGGLVQAGGSLRLSCAASGNTFGYYAMGWYRQAPGKERELVAAITWNGDRTYYADSVKGRFTISRDNAKNTVYLQMNSLKPEDTAVYYCNKVNPYRHGYWGQGTQVTVSS”, the entry is “high polyreactivity”; as for “QVQLVESGGGLVQAGGSLRLSCAASGNTFHPYAMGWYRQAPGKERALVAAITKSGGSTYYADSVKGRFTISRDNAKNTVYLQMNSLKPEDTAVYYCATDGYEYTDYGSSGYDYWGQGTQVTVSS”, “low polyreactivity”; as for “QVQLVESGGGLVQAGGSLRLSCAASGNTFIEYAMGWYRQAPGKERELVAAINWNGGSTYYADSVKGRFTISRDNAKNTVYLQMNSLKPEDTAVYYCYADYPQYWDYRTSDYTYGTYNYWGQGTQVTVSS”, “low polyreactivity”.
With “QVQLVESGGGLVQAGGSLRLSCAASGNTFIGNAMGWYRQAPGKERELVAAISWSTDSTYYADSVKGRFTISRDNAKNSVYLQMNSLKPEDTAINYCAADYSHLPIAWYYYWGQGTQVTVSS”, the “polyreactivity (PSR sort gate)” value is recorded as “low polyreactivity”.
In the case of “QVQLVESGGGLVQAGGSLRLSCAASGNTFIYYGMGWYRQAPGKERELVAAITWSGGSTYYADSVKGRFTISRDNAKNTVYLQMNSLKPEETAVYYCAKFTHNYYYWGQGTQVTVSS” it was “high polyreactivity”; in that of “QVQLVESGGGLVQAGGSLRLSCAASGNTFLRNTMGWYRQAPGTERELVAAISWGGGTTYYADSVKGRFTISRDNAKNTVYLQMNILKPEDTAVYYCNARYYSRRGNSWGQGTQVTVSS”, “high polyreactivity”; in that of “QVQLVESGGGLVQAGGSLRLSCAASGNTFNANAMGWYRQAPGKERELVAVISANGGRTYYADSVKGRFTISRDNAKNTVYLQMNSLKPEDTAVYYCATGRYGGQGYPFYYWGQGTQVTVSS”, “low polyreactivity”.
As for “QVQLVESGGGLVQAGGSLRLSCAASGNTFNPNAMGWYRQAPGKERELVAVIRFRGGSTYYADSVKGRFTISRDNAKNTVYLQMNSLKPEDTAVYYCNVYRGRYLYAWRPRGYWGQGTQVTVSS”, the entry is “high polyreactivity”; as for “QVQLVESGGGLVQAGGSLRLSCAASGNTFNSYAMGWYRQAPGKERELVAAISSSTGRTYYADSVKGRFTISRDNAKNTVYLQMNSLKPEDTAVYYCNAYLYLSRNGYWGQGTQVTVSS”, “high polyreactivity”; as for “QVQLVESGGGLVQAGGSLRLSCAASGNTFPAYAMGWYRQAPGTGGELVATISWSTGSTNYADSVKGRFTISRDNAKNTVYLQMNSLKPEDTAVYYCNKRYPSDQMDYWGQGTQVTVSS”, “low polyreactivity”.
Regarding “QVQLVESGGGLVQAGGSLRLSCAASGNTFPPNAMGWYRQAPGKERELVAAISWSGDSTYYADSVKGRFTISRDYAKNTVYLQMYSLKPEDTAVYYCAAAIFGEYEYWGQGTQVTVSS”, the “polyreactivity (PSR sort gate)” value is “low polyreactivity”.
